Measured values as given in PMC4652220, “Imaging and energetics of single SSB-ssDNA molecules reveal intramolecular condensation and insight into RecOR function” (eLife, 2015).

Target: T1, RecO (UniProt P0A7H3 1-242)
T1 construct: RecO recombination mediator protein; source: purified as previously described (Kantake et al., 2002)
T1 sequence (looked up): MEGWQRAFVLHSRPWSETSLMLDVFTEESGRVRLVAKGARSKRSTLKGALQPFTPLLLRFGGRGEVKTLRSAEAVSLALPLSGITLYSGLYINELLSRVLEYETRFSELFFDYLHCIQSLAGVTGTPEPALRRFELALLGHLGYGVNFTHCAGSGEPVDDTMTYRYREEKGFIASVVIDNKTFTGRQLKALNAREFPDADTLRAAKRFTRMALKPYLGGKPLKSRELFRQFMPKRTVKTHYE
Experiment: magnetic tweezers force spectroscopy; single tethered ssDNA; added in turn: 100 mM NaOAc and 1 mM Mg(OAc)2, 200 nM SSB, 100 nM RecO, 1 μM RecR; 20 mM TrisOAc pH 8.0, 50 mM DTT; 25°C
Conditions: both partners purified

binding result: binds
B1: RecR (natural protein, UniProt P0A7H6 1-201, looked up)
chain: MQTSPLLTQLMEALRCLPGVGPKSAQRMAFTLLQRDRSGGMRLAQALTRAMSEIGHCADCRTFTEQEVCNICSNPRRQENGQICVVESPADIYAIEQTGQFSGRYFVLMGHLSPLDGIGPDDIGLDRLEQRLAEEKITEVILATNPTVEGEATANYIAELCAQYDVEASRIAHGVPVGGELEMVDGTTLSHSLAGRHKIRF
notes: RecR recombination protein; It cites other work for RecR dimers/tetramers; source: purified as previously described (Kantake et al., 2002)
